The source of these data is article PMC4718636, “Recombinant hTRBP and hPACT Modulate hAgo2-Catalyzed siRNA-Mediated Target RNA Cleavage In Vitro” (PLoS ONE, 2016).

For this assay, the target named is T1, GST-hAgo2 (human Argonaute2) (human, UniProt Q9UKV8 1-859).
T1 construct: human Argonaute2 (hAgo2); In the cleavage assays hAgo2 stood with siRNA (hAgo2/siRNA complex); also called wt-hAgo2; hArgonaute2; source: expressed and purified as previously described [27]
Description: pull-down; pulldown assays shown only in Figure I of the S1 Supporting Information File; format not given. The conditions noted are these: both partners purified.

T1 sequence (Q9UKV8 whole entry): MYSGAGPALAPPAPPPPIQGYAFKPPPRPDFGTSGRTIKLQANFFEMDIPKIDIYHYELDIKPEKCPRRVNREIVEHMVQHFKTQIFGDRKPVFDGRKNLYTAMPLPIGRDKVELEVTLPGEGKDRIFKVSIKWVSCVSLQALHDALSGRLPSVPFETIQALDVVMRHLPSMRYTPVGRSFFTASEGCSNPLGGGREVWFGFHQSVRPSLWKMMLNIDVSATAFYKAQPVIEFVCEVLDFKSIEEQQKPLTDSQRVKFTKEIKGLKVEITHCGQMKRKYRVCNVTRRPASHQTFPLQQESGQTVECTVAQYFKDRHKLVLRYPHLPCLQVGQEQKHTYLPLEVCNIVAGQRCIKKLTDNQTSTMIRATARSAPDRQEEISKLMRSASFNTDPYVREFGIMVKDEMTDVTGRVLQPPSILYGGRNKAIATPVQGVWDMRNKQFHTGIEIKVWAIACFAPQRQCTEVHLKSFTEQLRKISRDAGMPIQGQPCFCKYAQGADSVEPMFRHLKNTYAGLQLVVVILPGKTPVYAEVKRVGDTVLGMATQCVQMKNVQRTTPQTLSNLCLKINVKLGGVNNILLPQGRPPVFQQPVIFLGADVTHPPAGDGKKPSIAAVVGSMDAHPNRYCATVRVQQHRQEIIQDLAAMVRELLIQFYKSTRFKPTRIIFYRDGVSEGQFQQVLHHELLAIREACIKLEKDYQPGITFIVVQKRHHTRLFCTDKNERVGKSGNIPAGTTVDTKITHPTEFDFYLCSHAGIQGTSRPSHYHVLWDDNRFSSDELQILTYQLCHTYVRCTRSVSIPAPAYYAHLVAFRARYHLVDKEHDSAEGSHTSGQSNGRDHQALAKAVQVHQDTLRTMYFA

B1: His-hPACT (human protein activator of protein kinase R), purified under native conditions (natural protein, UniProt O75569 1-313, looked up)
chain: MSQSRHRAEAPPLEREDSGTFSLGKMITAKPGKTPIQVLHEYGMKTKNIPVYECERSDVQIHVPTFTFRVTVGDITCTGEGTSKKLAKHRAAEAAINILKANASICFAVPDPLMPDPSKQPKNQLNPIGSLQELAIHHGWRLPEYTLSQEGGPAHKREYTTICRLESFMETGKGASKKQAKRNAAEKFLAKFSNISPENHISLTNVVGHSLGCTWHSLRNSPGEKINLLKRSLLSIPNTDYIQLLSEIAKEQGFNITYLDIDELSANGQYQCLAELSTSPITVCHGSGISCGNAQSDAAHNALQYLKIIAERK
notes: No removal of the His tag is described; also called hPACT^nat; source: E. coli BL21 (DE3), purified under native conditions (Talon Superflow)
As for B1, the binding result is “binds”.
